Assay results taken from patent publication US20240182541A1 (CONCEPT TO MEDICINE BIOTECH, published 2024).

Key:
[1] = target: T1, B7-H3 on B7H3-expressing A375 and A375.S2 cells (UniProt Q5ZPR3 29-534, limits assumed); assay: FACS on B7H3-expressing A375 and A375.S2 cells
T1 construct: whole, on cells
T1 sequence (looked up): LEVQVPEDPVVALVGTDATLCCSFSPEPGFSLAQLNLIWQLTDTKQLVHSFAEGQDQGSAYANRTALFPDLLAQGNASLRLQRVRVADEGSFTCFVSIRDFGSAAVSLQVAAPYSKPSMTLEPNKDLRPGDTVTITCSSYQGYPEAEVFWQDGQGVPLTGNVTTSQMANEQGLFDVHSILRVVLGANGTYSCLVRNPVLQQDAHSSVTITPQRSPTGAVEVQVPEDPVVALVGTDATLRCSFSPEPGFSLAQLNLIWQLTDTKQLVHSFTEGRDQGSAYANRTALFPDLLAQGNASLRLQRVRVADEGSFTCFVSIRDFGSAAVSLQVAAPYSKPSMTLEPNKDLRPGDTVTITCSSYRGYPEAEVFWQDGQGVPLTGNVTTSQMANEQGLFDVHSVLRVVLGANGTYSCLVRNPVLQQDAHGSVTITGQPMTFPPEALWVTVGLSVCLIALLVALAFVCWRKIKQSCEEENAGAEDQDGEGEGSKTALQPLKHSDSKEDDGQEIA

[2] = target: T1, B7-H3 on B7H3-expressing A375 and …; assay: cell-based binding on A375 and A375.S2 cells (FIG. 13)
[3] = target: T1, B7-H3 on B7H3-expressing A375 and …; assay: cell-based binding assay (FIG. 15A)
[4] = target: T1, B7-H3 on B7H3-expressing A375 and …; assay: binding to B7H3-expressing A375 cell line (FIG. 18)

B1: MGA017 (parental naked anti-B7-H3 antibody) (antibody, V domains shown)
VH: EVQLVESGGGLVKPGGSLRLSCAASGFTFSSYGMSWVRQAPGKGLEWVATINSGGSNTYYPDSLKGRFTISRDNAKNSLYLQMNSLRAEDTAVYYCARHDGGAMDYWGQGTTVTVSS
VL: DIQMTQSPSSLSASVGDRVTITCRASESIYSYLAWYQQKPGKAPKLLVYNTKTLPEGVPSRFSGSGSGTDFTLTISSLQPEDFATYYCQHHYGTPPWTFGQGTRLEIK
notes: Anti-B7-H3 antibody from MacroGenics; also called un-masked MGA017; parental naked antibody of Format 12
Q: Does B1 bind [1]?
A: Result: binds

B2: Format 28 (KIH CH3Δ6 mask + cleavable linker IPVSLRSG on MGA017 variable regions, mIgG1) (antibody)
heavy: GQPREPQVCTLPPSRDELTKNQVSLSCAVKGFYPSDIAVEWESNGQPENNYKTTPPVLDSDGSFFLVSKLTVDKSRWQQGNVFSCSVMHEALHNHYTQKSLIPVSLRSGEVQLVESGGGLVKPGGSLRLSCAASGFTFSSYGMSWVRQAPGKGLEWVATINSGGSNTYYPDSLKGRFTISRDNAKNSLYLQMNSLRAEDTAVYYCARHDGGAMDYWGQGTTVTVSSAKTTPPSVYPLAPGSAAQTNSMVTLGCLVKGYFPEPVTVTWNSGSLSSGVHTFPAVLQSDLYTLSSSVTVPSSTWPSETVTCNVAHPASSTKVDKKIVPRDCGCKPCICTVPEVSSVFIFPPKPKDVLTITLTPKVTCVVVDISKDDPEVQFSWFVDDVEVHTAQTQPREEQFNSTFRSVSELPIMHQDWLNGKEFKCRVNSAAFPAPIEKTISKTKGRPKAPQVYTIPPPKEQMAKDKVSLTCMITDFFPEDITVEWQWNGQPAENYKNTQPIMDTDGSYFVYSKLNVQKSNWEAGNTFTCSVLHEGLHNHHTEKSLSHSPGK
light: GQPREPQVYTLPPCRDELTKNQVSLWCLVKGFYPSDIAVEWESNGQPENNYKTTPPVLDSDGSFFLYSKLTVDKSRWQQGNVFSCSVMHEALHNHYTQKSLIPVSLRSGDIQMTQSPSSLSASVGDRVTITCRASESIYSYLAWYQQKPGKAPKLLVYNTKTLPEGVPSRFSGSGSGTDFTLTISSLQPEDFATYYCQHHYGTPPWTFGQGTRLEIKRADAAPTVSIFPPSSEQLTSGGASVVCFLNNFYPKDINVKWKIDGSERQNGVLNSWTDQDSKDSTYSMSSTLTLTKDEYERHNSYTCEATHKTSTSPIVKSFNRNEC
notes: Antibody prodrug against B7-H3, uncleaved
Q: Does B2 bind [2]?
A: Result: binds

B3: Format 29 (KIH CH3Δ6 mask + cleavable linker PLGLAG on MGA017 variable regions, mIgG1) (antibody)
heavy: GQPREPQVCTLPPSRDELTKNQVSLSCAVKGFYPSDIAVEWESNGQPENNYKTTPPVLDSDGSFFLVSKLTVDKSRWQQGNVFSCSVMHEALHNHYTQKSLPLGLAGEVQLVESGGGLVKPGGSLRLSCAASGFTFSSYGMSWVRQAPGKGLEWVATINSGGSNTYYPDSLKGRFTISRDNAKNSLYLQMNSLRAEDTAVYYCARHDGGAMDYWGQGTTVTVSSAKTTPPSVYPLAPGSAAQTNSMVTLGCLVKGYFPEPVTVTWNSGSLSSGVHTFPAVLQSDLYTLSSSVTVPSSTWPSETVTCNVAHPASSTKVDKKIVPRDCGCKPCICTVPEVSSVFIFPPKPKDVLTITLTPKVTCVVVDISKDDPEVQFSWFVDDVEVHTAQTQPREEQFNSTFRSVSELPIMHQDWLNGKEFKCRVNSAAFPAPIEKTISKTKGRPKAPQVYTIPPPKEQMAKDKVSLTCMITDFFPEDITVEWQWNGQPAENYKNTQPIMDTDGSYFVYSKLNVQKSNWEAGNTFTCSVLHEGLHNHHTEKSLSHSPGK
light: GQPREPQVYTLPPCRDELTKNQVSLWCLVKGFYPSDIAVEWESNGQPENNYKTTPPVLDSDGSFFLYSKLTVDKSRWQQGNVFSCSVMHEALHNHYTQKSLPLGLAGDIQMTQSPSSLSASVGDRVTITCRASESIYSYLAWYQQKPGKAPKLLVYNTKTLPEGVPSRFSGSGSGTDFTLTISSLQPEDFATYYCQHHYGTPPWTFGQGTRLEIKRADAAPTVSIFPPSSEQLTSGGASVVCFLNNFYPKDINVKWKIDGSERQNGVLNSWTDQDSKDSTYSMSSTLTLTKDEYERHNSYTCEATHKTSTSPIVKSFNRNEC
notes: as for B2
Q: Does B3 bind [2]?
A: Result: binds

B4: Format 30 (KIH CH3Δ6 mask + cleavable linker PLGLAGGGGS on MGA017 variable regions, mIgG1) (antibody)
heavy: GQPREPQVCTLPPSRDELTKNQVSLSCAVKGFYPSDIAVEWESNGQPENNYKTTPPVLDSDGSFFLVSKLTVDKSRWQQGNVFSCSVMHEALHNHYTQKSLPLGLAGGGGSEVQLVESGGGLVKPGGSLRLSCAASGFTFSSYGMSWVRQAPGKGLEWVATINSGGSNTYYPDSLKGRFTISRDNAKNSLYLQMNSLRAEDTAVYYCARHDGGAMDYWGQGTTVTVSSAKTTPPSVYPLAPGSAAQTNSMVTLGCLVKGYFPEPVTVTWNSGSLSSGVHTFPAVLQSDLYTLSSSVTVPSSTWPSETVTCNVAHPASSTKVDKKIVPRDCGCKPCICTVPEVSSVFIFPPKPKDVLTITLTPKVTCVVVDISKDDPEVQFSWFVDDVEVHTAQTQPREEQFNSTFRSVSELPIMHQDWLNGKEFKCRVNSAAFPAPIEKTISKTKGRPKAPQVYTIPPPKEQMAKDKVSLTCMITDFFPEDITVEWQWNGQPAENYKNTQPIMDTDGSYFVYSKLNVQKSNWEAGNTFTCSVLHEGLHNHHTEKSLSHSPGK
light: GQPREPQVYTLPPCRDELTKNQVSLWCLVKGFYPSDIAVEWESNGQPENNYKTTPPVLDSDGSFFLYSKLTVDKSRWQQGNVFSCSVMHEALHNHYTQKSLPLGLAGGGGSDIQMTQSPSSLSASVGDRVTITCRASESIYSYLAWYQQKPGKAPKLLVYNTKTLPEGVPSRFSGSGSGTDFTLTISSLQPEDFATYYCQHHYGTPPWTFGQGTRLEIKRADAAPTVSIFPPSSEQLTSGGASVVCFLNNFYPKDINVKWKIDGSERQNGVLNSWTDQDSKDSTYSMSSTLTLTKDEYERHNSYTCEATHKTSTSPIVKSFNRNEC
notes: as for B2
Q: Does B4 bind [2]?
A: Result: binds

B5: MGA017-mIgG1 (parental antibody of Formats 28-31) (antibody, V domains shown)
VH: EVQLVESGGGLVKPGGSLRLSCAASGFTFSSYGMSWVRQAPGKGLEWVATINSGGSNTYYPDSLKGRFTISRDNAKNSLYLQMNSLRAEDTAVYYCARHDGGAMDYWGQGTTVTVSS
VL: DIQMTQSPSSLSASVGDRVTITCRASESIYSYLAWYQQKPGKAPKLLVYNTKTLPEGVPSRFSGSGSGTDFTLTISSLQPEDFATYYCQHHYGTPPWTFGQGTRLEIK
notes: mIgG1; also called parental antibody MGA017; naked antibody MGA017
Q: Does B5 bind [2]?
A: Result: binds

B6: Format 31 (KIH CH3Δ6 mask + cleavable linker IPVSLRSGPLGLAG on MGA017 variable regions, mIgG1) (antibody)
heavy: GQPREPQVCTLPPSRDELTKNQVSLSCAVKGFYPSDIAVEWESNGQPENNYKTTPPVLDSDGSFFLVSKLTVDKSRWQQGNVFSCSVMHEALHNHYTQKSLIPVSLRSGPLGLAGEVQLVESGGGLVKPGGSLRLSCAASGFTFSSYGMSWVRQAPGKGLEWVATINSGGSNTYYPDSLKGRFTISRDNAKNSLYLQMNSLRAEDTAVYYCARHDGGAMDYWGQGTTVTVSSAKTTPPSVYPLAPGSAAQTNSMVTLGCLVKGYFPEPVTVTWNSGSLSSGVHTFPAVLQSDLYTLSSSVTVPSSTWPSETVTCNVAHPASSTKVDKKIVPRDCGCKPCICTVPEVSSVFIFPPKPKDVLTITLTPKVTCVVVDISKDDPEVQFSWFVDDVEVHTAQTQPREEQFNSTFRSVSELPIMHQDWLNGKEFKCRVNSAAFPAPIEKTISKTKGRPKAPQVYTIPPPKEQMAKDKVSLTCMITDFFPEDITVEWQWNGQPAENYKNTQPIMDTDGSYFVYSKLNVQKSNWEAGNTFTCSVLHEGLHNHHTEKSLSHSPGK
light: GQPREPQVYTLPPCRDELTKNQVSLWCLVKGFYPSDIAVEWESNGQPENNYKTTPPVLDSDGSFFLYSKLTVDKSRWQQGNVFSCSVMHEALHNHYTQKSLIPVSLRSGPLGLAGDIQMTQSPSSLSASVGDRVTITCRASESIYSYLAWYQQKPGKAPKLLVYNTKTLPEGVPSRFSGSGSGTDFTLTISSLQPEDFATYYCQHHYGTPPWTFGQGTRLEIKRADAAPTVSIFPPSSEQLTSGGASVVCFLNNFYPKDINVKWKIDGSERQNGVLNSWTDQDSKDSTYSMSSTLTLTKDEYERHNSYTCEATHKTSTSPIVKSFNRNEC
notes: as for B2
Q: Does B6 bind [3]?
A: Result: binds

B7: Format 33 (IgG1 CH3Δ6 hole / IgG4 CH3Δ6 knob mask + GGGS on MGA017 variable regions, hIgG1) (antibody)
heavy: not shown
light: GQPREPQVYTLPPCQEEMTKNQVSLWCLVKGFYPSDIAVEWESNGQPENNYKTTPPVLDSDGSFFLYSRLTVDKSRWQEGNVFSCSVMHEALHNHYTQKSLGGGSDIQMTQSPSSLSASVGDRVTITCRASESIYSYLAWYQQKPGKAPKLLVYNTKTLPEGVPSRFSGSGSGTDFTLTISSLQPEDFATYYCQHHYGTPPWTFGQGTRLEIKRTVAAPSVFIFPPSDEQLKSGTASVVCLLNNFYPREAKVQWKVDNALQSGNSQESVTEQDSKDSTYSLSSTLTLSKADYEKHKVYACEVTHQGLSSPVTKSFNRGEC
notes: Antibody prodrug against B7-H3
Q: Does B7 bind [4]?
A: Result: binds

B8: Format 34 (CLκ on VH / CH1 plus EPKSC on VL as mask + GGGS on MGA017 variable regions, hIgG1) (antibody)
heavy: not shown
light: ASTKGPSVFPLAPSSKSTSGGTAALGCLVKDYFPEPVTVSWNSGALTSGVHTFPAVLQSSGLYSLSSVVTVPSSSLGTQTYICNVNHKPSNTKVDKKVEPKSCGGGSDIQMTQSPSSLSASVGDRVTITCRASESIYSYLAWYQQKPGKAPKLLVYNTKTLPEGVPSRFSGSGSGTDFTLTISSLQPEDFATYYCQHHYGTPPWTFGQGTRLEIKRTVAAPSVFIFPPSDEQLKSGTASVVCLLNNFYPREAKVQWKVDNALQSGNSQESVTEQDSKDSTYSLSSTLTLSKADYEKHKVYACEVTHQGLSSPVTKSFNRGEC
notes: as for B7
Q: Does B8 bind [4]?
A: Result: binds
